Assay results as given in patent publication US20210040232A1 (Regeneron, published 2021).
Values belong to the binder of their own block, whether it stands above or below them.

Tests used:
[1] = molecular target: T1, soluble Macaca fascicularis CTLA-4 expressed with a C-terminal myc-myc-polyhistidine tag (Macaca fascicularis); experiment: SPR, mAb capture, 25 C
T1 construct: soluble protein; also called mf CTLA-4.mmh; mfCTLA4.mmh
T1 chain: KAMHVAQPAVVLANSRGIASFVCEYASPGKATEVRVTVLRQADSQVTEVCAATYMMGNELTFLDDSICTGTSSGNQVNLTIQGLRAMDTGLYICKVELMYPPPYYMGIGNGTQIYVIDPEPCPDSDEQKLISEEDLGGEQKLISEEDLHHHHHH

[2] = molecular target: T2, soluble human CTLA-4 expressed with a C-terminal myc-myc-polyhistidine tag (human); experiment: SPR, mAb capture, 25 C
T2 construct: soluble protein; also called hCTLA-4.mmh; hCTLA4.mmh

[3] = molecular target: T3, hCTLA-4 extracellular domain (aa 1-161) fused to the trans-membrane and cytoplasmic domain of hCD300a (aa … (human, UniProt Q9UGN4 181-299)); experiment: cell-based or functional assay
T3 sequence (Q9UGN4 other isoform, or with tags, fused parts or gaps limits assumed, form in doubt): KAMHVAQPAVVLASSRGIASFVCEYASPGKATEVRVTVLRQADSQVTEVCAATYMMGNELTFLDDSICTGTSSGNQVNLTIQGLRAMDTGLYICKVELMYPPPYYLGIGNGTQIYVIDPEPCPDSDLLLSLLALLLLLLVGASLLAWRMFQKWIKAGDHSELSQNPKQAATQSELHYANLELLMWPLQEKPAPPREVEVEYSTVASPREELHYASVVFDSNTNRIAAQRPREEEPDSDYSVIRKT

[4] = molecular target: T4, recombinant hCTLA-4-mFc (human CTLA-4 extracellular domain with a C-terminal Fc portion of mouse IgG2a) (human); experiment: competition ELISA, 400 pM hCTLA-4-mFc on plate-coated hB7-2-hIgG1-6His
T4 construct: also called dimeric CTLA-4 protein
T4 sequence (chain, as listed by the source limits assumed): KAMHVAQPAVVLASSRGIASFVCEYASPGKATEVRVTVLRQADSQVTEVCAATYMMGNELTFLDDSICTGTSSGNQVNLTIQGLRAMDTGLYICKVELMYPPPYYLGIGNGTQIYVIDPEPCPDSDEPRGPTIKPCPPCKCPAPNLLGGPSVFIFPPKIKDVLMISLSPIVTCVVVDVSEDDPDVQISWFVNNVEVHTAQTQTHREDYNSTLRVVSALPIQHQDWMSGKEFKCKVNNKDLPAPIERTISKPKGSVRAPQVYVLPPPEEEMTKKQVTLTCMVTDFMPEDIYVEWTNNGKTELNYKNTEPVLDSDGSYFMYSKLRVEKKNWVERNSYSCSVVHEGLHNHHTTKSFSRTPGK

[5] = molecular target: T3, hCTLA-4 extracellular domain (aa 1-161) …; experiment: cell-based or functional assay; remark: listed apart in the source
[6] = molecular target: T3, hCTLA-4 extracellular domain (aa 1-161) …; experiment: ECL cell binding, Jurkat/NFAT-Luc/hCTLA-4-hCD300a cells
[7] = molecular target: T5, human CTLA-4 (amino acids M1-N223) on stably transfected VI-fibroblast cells (human, UniProt P16410 36-223); experiment: ECL cell binding, VI-fibroblast/hCTLA-4 cells;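 also: antibodies bound to the cells on carbon electrode plates, detected via SULFO-TAG anti-IgG secondary (1 h, RT), electrochemiluminescence read as RLU over a concentration range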
T5 construct: also called VI-fibroblast/hCTLA-4
T5 sequence (P16410 36-223 limits assumed): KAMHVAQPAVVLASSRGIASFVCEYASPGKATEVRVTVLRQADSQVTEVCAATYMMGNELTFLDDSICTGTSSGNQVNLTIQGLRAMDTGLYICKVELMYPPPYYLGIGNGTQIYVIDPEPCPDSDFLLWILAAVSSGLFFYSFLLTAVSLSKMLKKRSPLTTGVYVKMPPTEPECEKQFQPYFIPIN

[8] = molecular target: T4, recombinant hCTLA-4-mFc (human CTLA-4 …); experiment: competition ELISA, 200 pM hCTLA-4-mFc on plate-coated hB7-1-hIgG1-6His

B1: H1H19273P (antibody, human IgG1, V domains shown)
VH: QITLKESGPTLVKPTQTLTLTCTFSGFSLSTSGVGVGWIRQSPGRALEWLALIYWNDHERYSPSLKSRLTITKDTSKNLVVLAMANMDPVDTATYFCAHRNIEYRRSYFFDYWGQGTLVTVSS
VL: DIQMTQSPSSVSASVRDRVTVTCRASQDINNWLAWYQQKPGKAPKLLIYAASSLQSGVPSRFSGSGSGTDFTLTISSLQPEDFATYYCQQANTFPFTFGPGTKVDIK
Kd [1]: 0.956 nM
koff [1]: 0.000346 s⁻¹
kon [1]: 362000 M⁻¹ s⁻¹
t1/2 [1]: 33.4 min
Kd [2]: 0.966 nM
koff [2]: 0.000362 s⁻¹
kon [2]: 374000 M⁻¹ s⁻¹
t1/2 [2]: 31.9 min
EC50, T-cell/APC IL-2 release assay, APC HEK293/hCD20/hCD80 [3]: 33.3 nM
Fold induction of IL-2 at 100 nM, APC HEK293/hCD20/hCD80 [3]: 5.1 fold
% Blockade [4]: 98%
IC50 [4]: 0.54 nM
EC50, T-cell/APC NFAT-luciferase assay, +Fc Block [5]: 3.83 nM
EC50, T-cell/APC NFAT-luciferase assay, -Fc Block [5]: 2.74 nM
EC50 [6]: 0.52 nM
ratio of RLU signal to parental VI-fibroblast at 0.4 nM Ab [7]: 11 ratio
% Blockade [8]: 98%
IC50 [8]: 0.25 nM

B2: H1H19303P (antibody, human IgG1, kappa, V domains shown)
VH: EVQLVESGGGLVQPGGSLRLSCAASGFTFSNYEMSWVRQAPGKGLEWVSSIRTSGTTKYYADSMKGRFTISRDNAKNSLYLQMNSLRAEDTAVYYCAGGGTFLHYWGQGTLVTVSS
VL: DIQMTQSPSSVSASVGDRVTITCRASQGIASYLAWYQQKPGKAPKLLIYAASSLQTGVPSRFSGSGYGTDFTLTISSLQPEDFATYYCQQAKSFPMYTFGQGTKLEIKR
notes: also called REGN4659
Kd [1]: 15.7 nM
koff [1]: 0.00245 s⁻¹
kon [1]: 156000 M⁻¹ s⁻¹
t1/2 [1]: 4.7 min
Kd [2]: 16.4 nM
koff [2]: 0.00199 s⁻¹
kon [2]: 121000 M⁻¹ s⁻¹
t1/2 [2]: 5.8 min
EC50, T-cell/APC IL-2 release assay, APC HEK293/hCD20/hCD80 [3]: 40.9 nM
Fold induction of IL-2 at 100 nM, APC HEK293/hCD20/hCD80 [3]: 5.4 fold
% Blockade [4]: 97%
IC50 [4]: 39 nM
EC50, T-cell/APC NFAT-luciferase assay, +Fc Block [5]: 1.73 nM
EC50, T-cell/APC NFAT-luciferase assay, -Fc Block [5]: 1.61 nM
EC50 [6]: 0.29 nM
EC50 [7]: 0.21 nM
ratio of RLU signal to parental VI-fibroblast at 0.4 nM Ab [7]: 20 ratio
% Blockade [8]: 90%
IC50 [8]: 180 nM

B4: H1H19274P (antibody, human IgG1, V domains shown)
VH: QVQLQESGPGLVKPSETLSLTCTVSGGSINSYYWTWIRQPPGKGLEWIGYVYYSGSTTYNPSLKSRVTISVDTSKNQFFLNLNSVTAAETAVYYCARGTLGYYGMDVWGQGTTVTVSS
VL: EIVLTQSPGTLSLSPGERATLSCRASQSFSNNYLAWYQQKPGQAPRLLIYGTSIRATGIPDRFSGSGSGTDFTLAISRLEPEDFAVYYCQQYGRSPLTFGGGTKVEIK
Kd [1]: 0.887 nM
koff [1]: 0.000463 s⁻¹
kon [1]: 522000 M⁻¹ s⁻¹
t1/2 [1]: 25 min
Kd [2]: 1.43 nM
koff [2]: 0.00076 s⁻¹
kon [2]: 530000 M⁻¹ s⁻¹
t1/2 [2]: 15.2 min
% Blockade [4]: 100%
IC50 [4]: 0.25 nM
EC50 [7]: 0.39 nM
ratio of RLU signal to parental VI-fibroblast at 0.4 nM Ab [7]: 18 ratio
% Blockade [8]: 99%
IC50 [8]: 0.13 nM

B5: H1H19278P (antibody, human IgG1, V domains shown)
VH: QVQLVESGGGVVQPGRSLRLSCAASGFTFSSYGMNWVRQAPGKGLEWVAVTWYDGSNKHYADSVKGRFTISRDNSKNTLYLQMYSLRAEDTAMYYCVRGGHLGAFDIWGQGTMVTVSS
VL: EIVLTQSPGTLSLSPGERATLSCRASQSVSSYLAWYQQKPGQAPRLLIYGASSRATGIPDRFSGGGSGTDFTLTISRLEPEDFAVYYCQQYGSSPFTFGPGTKVDIK
Kd [1]: 6.11 nM
koff [1]: 0.00101 s⁻¹
kon [1]: 166000 M⁻¹ s⁻¹
t1/2 [1]: 11.4 min
Kd [2]: 2.25 nM
koff [2]: 0.000402 s⁻¹
kon [2]: 179000 M⁻¹ s⁻¹
t1/2 [2]: 28.8 min
% Blockade [4]: 100%
IC50 [4]: 0.54 nM
EC50 [7]: 0.22 nM
ratio of RLU signal to parental VI-fibroblast at 0.4 nM Ab [7]: 19 ratio
% Blockade [8]: 99%
IC50 [8]: 0.32 nM

B8: H1H19283P (antibody, human IgG1, V domains shown)
VH: QVQLVESGGGLVKPGGSLRLSCAASGFTFSDYYMTWIRQAPGKGLEWVSYISSSGGNIFYADSVKGRFTISRDNAKNSLYLQMNSLRGEDTAVYYCARGLEPYHYYYGMDVWGQGTTVTVSS
VL: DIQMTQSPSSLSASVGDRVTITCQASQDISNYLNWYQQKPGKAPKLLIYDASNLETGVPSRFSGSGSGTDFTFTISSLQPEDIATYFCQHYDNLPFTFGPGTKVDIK
Kd [1]: 3.11 nM
koff [1]: 0.000683 s⁻¹
kon [1]: 220000 M⁻¹ s⁻¹
t1/2 [1]: 16.9 min
Kd [2]: 3.75 nM
koff [2]: 0.000828 s⁻¹
kon [2]: 221000 M⁻¹ s⁻¹
t1/2 [2]: 14 min
% Blockade [4]: 99%
IC50 [4]: 1.2 nM
EC50 [7]: 0.79 nM
ratio of RLU signal to parental VI-fibroblast at 0.4 nM Ab [7]: 7 ratio
% Blockade [8]: 96%
IC50 [8]: 9.7 nM

B9: H1H19284P (antibody, human IgG1, V domains shown)
VH: EVQLVESGGGLVQPGGSLRLSCAASGFTLSNYVMTWVRQAPGKGLEWVSAISGRGGNSYYADSVKGRFSISRDHSKNTLYLQVNSLRAEDTAVYYCAKAERGYSYGFNWFDPWGQGTLVTVSS
VL: DIQMTQSPSSVSASAGDRVTITCRASQGISSWLAWYQQKPGKAPKLLIYAASSLQSGVPSRFSGSGSGTDFTLTISSLQPEDFASYYCQQGNNFPLTFGGGTKVEIK
Kd [1]: 1.57 nM
koff [1]: 0.000305 s⁻¹
kon [1]: 194000 M⁻¹ s⁻¹
t1/2 [1]: 37.9 min
Kd [2]: 2.49 nM
koff [2]: 0.000369 s⁻¹
kon [2]: 148000 M⁻¹ s⁻¹
t1/2 [2]: 31.3 min
% Blockade [4]: 99%
IC50 [4]: 0.31 nM
ratio of RLU signal to parental VI-fibroblast at 0.4 nM Ab [7]: 7 ratio
% Blockade [8]: 98%
IC50 [8]: 0.17 nM

B10: H1H19294P (antibody, human IgG1, V domains shown)
VH: QVQLVQSGAEVKMSGASVRVSCKASGYTFTSYGISWMRQAPGQGLEWMGWITAYNGNSNYAQKLQGRVTMTTDTSTGTAYMELRSLTSDDTAVYYCARRGDYLGVFPYWGQGTLVTVSS
VL: DIQMTQSPSSLSASVGDRVTITCRASQSISSYLNWYQQKPGKAPNLLIYTASSLQSGVPSRFSGSGSGTDFTLTISSLQPEDFATYYCQQSYSSPLTFGGGTKVEIK
Kd [1]: 1.02 nM
koff [1]: 0.000269 s⁻¹
kon [1]: 263000 M⁻¹ s⁻¹
t1/2 [1]: 43 min
Kd [2]: 1.13 nM
koff [2]: 0.000323 s⁻¹
kon [2]: 285000 M⁻¹ s⁻¹
t1/2 [2]: 35.7 min
% Blockade [4]: 99%
IC50 [4]: 0.25 nM
EC50 [7]: 0.68 nM
ratio of RLU signal to parental VI-fibroblast at 0.4 nM Ab [7]: 10 ratio
% Blockade [8]: 99%
IC50 [8]: 0.15 nM

Next, values leading:

Kd [1]: 12.9 nM
t1/2 [1]: 4.4 min
Kd [2]: 10.2 nM
t1/2 [2]: 7.9 min
% Blockade [4]: 97%
IC50 [4]: 43 nM
EC50, T-cell/APC NFAT-luciferase assay, +Fc Block [5]: 4.18 nM
EC50, T-cell/APC NFAT-luciferase assay, -Fc Block [5]: 2.47 nM
EC50 [6]: 0.28 nM
EC50 [7]: 0.24 nM
% Blockade [8]: 85%
IC50 [8]: 320 nM
B3: H1H19319P2 (antibody, human IgG1, V domains shown)
VH: QVQLVESGGGEVQPGRSLRLSCAASGFTFSSYGMHWVRQAPGKGLEWVAVIWYDGRNKHYVDSVKGRFTISRDNSKNTVYLQMNSLRAEDSAVYYCVRGGQLGAFDYWGQGTLVTVSS
VL: not shown

Kd [1]: 0.763 nM
koff [1]: 0.000259 s⁻¹
kon [1]: 340000 M⁻¹ s⁻¹
t1/2 [1]: 44.6 min
Kd [2]: 0.752 nM
koff [2]: 0.000261 s⁻¹
kon [2]: 346000 M⁻¹ s⁻¹
t1/2 [2]: 44.3 min
% Blockade [4]: 100%
IC50 [4]: 0.22 nM
EC50 [7]: 0.24 nM
ratio of RLU signal to parental VI-fibroblast at 0.4 nM Ab [7]: 18 ratio
% Blockade [8]: 97%
IC50 [8]: 0.21 nM
B6: H1H19279P (antibody, human IgG1, V domains shown)
VH: QVQLVQSGAEVKKPGASVKVSCKASGYTFTDYYIHWVRQAPGQGLEWMGWINPNNGVSNYAQKFQGRVTMTRDTSISTAYMDLIRLRSDDTAVYYCARERASWDYNGVDVWGQGTTVTVSS
VL: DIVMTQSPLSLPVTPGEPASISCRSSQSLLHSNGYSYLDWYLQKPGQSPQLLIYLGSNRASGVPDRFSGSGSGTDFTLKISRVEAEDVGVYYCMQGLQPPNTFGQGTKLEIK

Kd [1]: 0.964 nM
koff [1]: 0.000309 s⁻¹
kon [1]: 320000 M⁻¹ s⁻¹
t1/2 [1]: 37.4 min
Kd [2]: 1.03 nM
koff [2]: 0.000346 s⁻¹
kon [2]: 337000 M⁻¹ s⁻¹
t1/2 [2]: 33.4 min
% Blockade [4]: 100%
IC50 [4]: 0.2 nM
EC50 [7]: 1.3 nM
ratio of RLU signal to parental VI-fibroblast at 0.4 nM Ab [7]: 15 ratio
% Blockade [8]: 99%
IC50 [8]: 0.11 nM
B7: H1H19280P (antibody, human IgG1, V domains shown)
VH: QLQLQESGPGLVKPSETLSLTCIVSGGSTSSNTYYWGWIRQPPGKGLEWIGTIHYSGNPYYDPSLKSRVTISVDTSKNHFSLKLNSVTAADTAVYYCTRQYINFFDFWGQGTLVTVSS
VL: EIVLTQSPATLSLSPGERVTLSCRASQSISRYLAWYQQKPGQAPRVLIYDASNRATDIPARFSGSGSGTDFTLTISSLEPEDFAVYYCQQRSNWPITFGQGTRLEIK
